Measured values from the RNAGym collection of RNA variant scans (doi:10.1073/pnas.2313332121).

B1: TPR t1 (parent)
chain: GACCAAUCUGCCCUCAGAGCUCGAGAACAUCUUCGGAUGCAGAGGAGGCAGGCUUCGGUGGCGCGAUAGCGCCAACGUCCUCAACCUCCAAUGCAUCCCACCACAUGAUGAUGCCUGAAGAGCCUUGGUUUUUUG

Variants of: B1
Assay: polymerase ribozyme fitness, log enrichment relative to wild type (log ratio); higher = more active; in vitro selection for triplet polymerase activity
How it was run: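 Mutant libraries of both subunits of a heterodimeric triplet polymerase ribozyme were PCR-built, transcribed, and selected once in triplicate, with frozen incubation at −7 °C and capture of gel-excised extended constructs on streptavidin beads before RT-PCR. Illumina sequencing of input and output libraries was filtered to genotypes with ≥10 input reads and ≥1 read per output. Fitness is the logarithm of genotype enrichment over wild-type enrichment, using inverse-variance-weighted replicate averages. The logarithm is base 2.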

Row | Variant | polymerase ribozyme fitness (log ratio)
1 | G44A C62A C88U C89U G128C U129G | -2.95
2 | A74C G113U U133A | -3.26
3 | A43C C85A C104U G113A | -2.96
4 | C89U G113C G120C | -3.26
5 | C40U C73G | -0.891
6 | G60C C124U | 1
7 | A90C U106C U116G A119G U125G | -1.75
8 | C12G G47A G113A C124U U129G U133A | -4.6
9 | C3A C11U G47A G63U G127C | -3.33
10 | A68G U78A C79U U106G | -6.12
11 | G52A G120C | 0.847
12 | G63A G93U | -2.58
13 | C8A C28G C53A U106G | -3.51
14 | U9A A24U G71A G107A U125G | -7.09
15 | C72U U112A G120C | 0.504
16 | C73A G110C U125A U129A | -6.92
17 | C89U | -0.195
18 | G17A C56A G93U | -4.99
19 | C70A U106C C114A | -4.64
20 | G93A G120U | -0.0719
21 | A18U A83U C101A | -3.63
22 | G58C G71U C101G U112C U129G | -0.74
23 | U9C C11U G60C G71U U133A | -4.61
24 | A16U C72U | -1.94

Row | Variant | polymerase ribozyme fitness (log ratio)
25 | U7C C85A C104U U116C | -1.6
26 | C11G G39U C56U | -0.805
27 | G42A G60C C82A | -3.4
28 | U87A U106G U125G | -2.01
29 | A29G G110A | -2.21
30 | C82U U133A | -0.572
31 | C11G G93C C97G U106A G120C | -3.9
32 | C28U A105C | -4.77
33 | C70A U92A A95U A111C G113C | -6.14
34 | A16U G42A | -3.84
35 | A26U G39C G61A A83U G110A A121G | -5.04
36 | U21A C28A G71A C79U U81A G110C | -6.99
37 | G52U G110A | -1.73
38 | A29U C34U | -4.41
39 | C8U C20G A95G G113U G128A | -2.96
40 | G48A G93A C114G | -3.84
41 | G42A C64U | -2.45
42 | U21A G42U G63C C82A | -3.34
43 | C4U A100U | -1.08
44 | C22G G61U | -2.12
45 | A6G A41U C85G A119U U125G | -6.15
46 | G63U U130G | -0.881
47 | A5U G44C C70U A84C C104A G117C | -7.15
48 | A46G U87C | 0.254

Row | Variant | polymerase ribozyme fitness (log ratio)
49 | C13U G17A C62U U78A U81A U112A | -4.61
50 | C73G A91C G127A | -3.34
51 | C13U C15A A91C | -4.3
52 | C22G G23A C97U G120C | -3
53 | C28U G58C G61C | -2.78
54 | C12A C53U U106G G113C G127C | -5.83
55 | A26G A66U A84U G110U G135U | -5.61
56 | C53U C73U A90G | 0.151
57 | G48A G63A C97A U112C | -4.92
58 | C12A C49U G113C U133C | -3.24
59 | C72G C101A U125G | -1.8
60 | C20U G63C | -2.1
61 | C34A C72A C73A C97U | -3.88
62 | C62U C70G | -3.65
63 | A2C C115A | -1.3
64 | G10C C34A C124A | -3.03
65 | A16G G45A C80G C114U | -5.91
66 | G42A G47U G57U G58U | -3.58
67 | G19U U129G | -4.04
68 | A37U G69U | -0.0814
69 | A2C A27G A29U G77A G113A C124G | -3.05
70 | C11A G45U G71C A121C U132A | -0.245
71 | U9C C40A G42C C73A C101A G122A U130A | -1.67
72 | A41C C82A A111C | -2.14

Row | Variant | polymerase ribozyme fitness (log ratio)
73 | G93A A105C | -3.13
74 | C13A G36A G63A C80U | -3.86
75 | C49U G107A | -3.94
76 | G45C G48C G69A | -4.32
77 | A2G C62A | -0.128
78 | C53G U81C U106A | -4.71
79 | C11G A46G U106G G128U | -2.63
80 | C56U G120U | 0.743
81 | G19C U92A C114U U133A | -1.16
82 | G58C U116C | -0.944
83 | C11U U54G C73U C97U G120C | 0.506
84 | A37U C86U | -0.912
85 | C31U C53G | -3.58
86 | C28A G61U | -3.73
87 | C85G C89U | -0.78
88 | C8U A41U C97U | -0.942
89 | C12G G61U | 0.811
90 | A26U G61A U116G A121G | -2.88
91 | A2G G61C C88U C124A | -0.51
92 | C40U A83C | -0.818
93 | C76G U106C G128C | -3.27
94 | C13U C20A U21G A24C G71C U112C C123A | -6.62
95 | G36U G44U U112G | -4.18
96 | C13U A16G G63A U87A C98A C123G | -6.74

Row | Variant | polymerase ribozyme fitness (log ratio)
97 | G52U C115A | -0.782
98 | U9G A46U G60U A91C G117A | -0.876
99 | G60A C124U | 1.27
100 | U54G G57A C72G C114U | -5.48
101 | G51A C73G | -0.931
102 | C22G U38A G61U C124U | -3.08
103 | C22G A37U A41C C53U | -3.91
104 | U55A G63C C98U G113U | -4.52
105 | C8A A37C U78G A100C C101A U106G | -5.27
106 | G45C U106A | -1.34
107 | C12U C22U A46U | -4.76
108 | A95G U126C | -0.892
109 | C49A C72A G110C U112A | -6.75
110 | C12U G17A U59A G61C C124A | -1.65
111 | U30A C73U | -5.38
112 | C28U G61U U92C | -2.53
113 | U78C A83C C89G | -2.02
114 | C70U U78C C86G | -0.947
115 | A5U C56G C70A | -3.29
116 | C3A A50U C80U G120U | -4.64
117 | C53U C73G C85U C102A | -5.04
118 | C4G C104U | -0.878
119 | A50U C86U | -1.27
120 | U55G C85U | -0.919

Row | Variant | polymerase ribozyme fitness (log ratio)
121 | G69A U109A | -5.09
122 | C4A A24G | -4.5
123 | C12G C70A A118G | -0.792
124 | C72U C97A | -5.06
125 | A95G C124U U130G | 0.565
126 | A41G G57A C64U U130A | -1.6
127 | C20U G60C | -1.73
128 | G10U G48U G93A | -1.17
129 | U21G C88A C97A A121C | -5.55
130 | G69C G117U | -3.02
131 | C3U G113A | -1.68
132 | A2G C13A A43U G51U C64U A83U A84G | -6.26
133 | G60A G127A | -0.964
134 | G45A C64U C86U C115A C123G | -1.22
135 | A29U C94A | -1.79
136 | U9C G44U G63A C89G U109A | -7.22
137 | G47C A111C A118C | -2.36
138 | G10A G17A | -3.1
139 | U38C G39U | -1.44
140 | C11U G69A A84C C123U | -0.562
141 | A29G A84C C94U U106A G120A U125G | -0.885
142 | U21A C102G G113U A118U U129G | -6.08
143 | A26G G57A | -2.54
144 | C56U G113U C123G | -2.01

Row | Variant | polymerase ribozyme fitness (log ratio)
145 | C76U U87A G110A U130G | -2.07
146 | G45A G48U C49A C53U G69C C115G | -4.6
147 | C4U A37U G48U C73G C98A U106G U112A | -5.16
148 | A16G C40G C124A | 0.0509
149 | A41U U126G | -3.66
150 | G39U C102A | -3.45
151 | A74C | -0.272
152 | A74G | 0.0609
153 | C11G U54C | -0.0215
154 | C8U A100U | -0.0529
155 | A5G U14A | -1.75
156 | C13G U59G G61U U112C | -1.62
157 | G10A C22U | -4.59
158 | C8A C40A A43G G60C | -3.55
159 | A27U U116G | -5.63
160 | A6U G36U | -1.07
161 | G10A C94A C97U U106A | -0.642
162 | C4G U92C | -3.05
163 | C73A C86U U87A G117A U132A | -3.67
164 | C70U A108G | -2.04
165 | C8G C12G | 0.399
166 | A41U A46U G63U | -3.33
167 | C82G C86A | -0.475
